The source of these data is paper PMC4283134, “Nup98 FG domains from diverse species spontaneously phase-separate into particles with nuclear pore-like permselectivity” (eLife, 2015).

Data set [1] has as its target Trypanosoma brucei Nup158 FG domain (Trypanosoma brucei). The data set can be described thus: dynamic light scattering; FG domain diluted from stocks in 2 M GuHCl into TBS (50 mM Tris/HCl pH 7.5, 150 mM NaCl) to 10-0.06 µM; critical concentration of phase separation from the lowest concentration with particles, refined by the monomers that co-exist with particles.
Data set [2] concerns the target Branchiostoma floridae Nup98 FG domain, O-GlcNAc modified (Branchiostoma floridae). Described as above.
Data set [3] concerns the target Saccharomyces cerevisiae Nup100 FG domain (residues 2-580, purified) (S. cerevisiae) (UniProt Q02629). Nature of the data set: partitioning into FG particles (confocal laser-scanning microscopy); FG particles formed from 5 or 10 µM purified FG domain (with labelled tracer) by dilution from GuHCl into TBS; 1 µM fluorescent NTR or NTR⋅cargo complex or 3 µM passive probe added; images about 2-3 min later.

For data set [4], the target named is Tetrahymena thermophila macronuclear MacNup98A FG domain (Tetrahymena thermophila). The data set can be described thus: dynamic light scattering; FG domain diluted from stocks in 2 M GuHCl into TBS (50 mM Tris/HCl pH 7.5, 150 mM NaCl) to 10-0.06 µM; critical concentration of phase separation from the lowest concentration with particles, refined by the monomers that co-exist with particles.

The target in data set [5] is Branchiostoma floridae Nup98 FG domain (Branchiostoma floridae). The description is as above.
Data set [6] has as its target Dictyostelium discoideum Nup220 FG domain (Dictyostelium discoideum). The description is as above.
Data set [7] has as its target Saccharomyces cerevisiae Nup100 FG domain (residues 1-580, FG bodies formed in E. coli) (S. cerevisiae) (UniProt Q02629). The data set can be described thus: partitioning into FG bodies or inclusion bodies (confocal laser-scanning microscopy); crude FG bodies or actin inclusion bodies from E. coli, washed twice in TBS; 1 µM Impβ•IBB-GFP and MBP-mCherry added.
Data set [8] concerns the target Saccharomyces cerevisiae Nup116 FG domain (residues 1-736, FG bodies formed in E. coli) (S. cerevisiae) (UniProt Q02630). Described as above.
The next data set addresses T1, human Importin β (human, UniProt Q14974 1-876).
T1 construct: Importin β, human; also called HsImpβ; pICH005; source: E. coli (BLR or NEB Express), purified (native Ni(II) chelate chromatography, tag removed); not shown: His14, N-terminal, cleaved; scSUMO, N-terminal, cleaved
Nature of the data set: pull-down; His-tagged FG domains (30 µg each) immobilised on 30 µl PEG-passivated Ni(II) chelate beads; 1 µM untagged human Importin β (400 µl), 2 hr at 4°C; 25 mM Tris/HCl pH 7.5, 100 mM NaCl, 1 mM MgCl2, 0.5% PEG4000, 5 mM DTT; SDS-PAGE/Coomassie. The following applies: both partners purified.

Data set [9] concerns the molecule itself. The data set can be described thus: dynamic light scattering; FG domain diluted from stocks in 2 M GuHCl into TBS (50 mM Tris/HCl pH 7.5, 150 mM NaCl) to 10-0.06 µM; critical concentration of phase separation from the lowest concentration with particles, refined by the monomers that co-exist with particles.

T1 sequence (Q14974 whole entry): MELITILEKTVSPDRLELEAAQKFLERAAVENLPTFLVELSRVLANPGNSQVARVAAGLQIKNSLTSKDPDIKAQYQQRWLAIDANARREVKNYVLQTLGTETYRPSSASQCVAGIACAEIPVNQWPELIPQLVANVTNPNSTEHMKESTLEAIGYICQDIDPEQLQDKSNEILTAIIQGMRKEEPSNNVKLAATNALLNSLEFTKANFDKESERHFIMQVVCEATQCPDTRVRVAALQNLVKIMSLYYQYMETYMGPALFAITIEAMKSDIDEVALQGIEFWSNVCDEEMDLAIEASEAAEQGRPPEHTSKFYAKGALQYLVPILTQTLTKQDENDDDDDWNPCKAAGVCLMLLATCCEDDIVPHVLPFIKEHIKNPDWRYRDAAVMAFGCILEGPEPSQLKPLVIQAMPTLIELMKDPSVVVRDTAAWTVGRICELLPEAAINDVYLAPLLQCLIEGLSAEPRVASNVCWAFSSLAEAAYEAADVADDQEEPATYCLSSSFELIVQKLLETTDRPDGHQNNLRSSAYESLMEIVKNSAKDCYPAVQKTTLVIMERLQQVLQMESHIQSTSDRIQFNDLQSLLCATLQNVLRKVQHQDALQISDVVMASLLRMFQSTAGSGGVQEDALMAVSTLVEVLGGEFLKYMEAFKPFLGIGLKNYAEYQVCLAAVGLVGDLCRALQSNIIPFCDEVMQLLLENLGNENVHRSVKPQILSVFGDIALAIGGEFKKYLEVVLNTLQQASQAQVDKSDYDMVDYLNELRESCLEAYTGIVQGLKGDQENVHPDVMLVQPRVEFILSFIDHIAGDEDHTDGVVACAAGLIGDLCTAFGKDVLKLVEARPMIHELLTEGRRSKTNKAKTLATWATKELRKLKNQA

With “Trypanosoma brucei Nup158 FG domain (domain or fragment)”, the estimated critical concentration for phase separation (FG domain) in data set [1] is 300 nM.
As to “Branchiostoma floridae Nup98 FG domain, O-GlcNAc modified (domain or fragment)”, in data set [2], the estimated critical concentration for phase separation (FG domain) was 150 nM.
In [3], MBP-mCherry fusion had a particle:buffer partition coefficient of less than 0.1.
In the case of “Tetrahymena thermophila macronuclear MacNup98A FG domain (domain or fragment)”, in data set [4], the estimated critical concentration for phase separation (FG domain) was 25 nM.
As to “Branchiostoma floridae Nup98 FG domain (domain or fragment)”, the estimated critical concentration for phase separation (FG domain) in data set [5] is 20 nM.
For the molecule “Dictyostelium discoideum Nup220 FG domain (domain or fragment)”, the estimated critical concentration for phase separation (FG domain) in [6] is 125 nM.
“Importin β⋅IBB-GFP complex (from UniProt Q06142 1-861; Q02821 2-63)”: the particle:buffer partition coefficient in data set [7] turned out to be 200; in data set [8] it was 200; in [3], 220.

B1: Homo sapiens Nup98 FG domain (domain or fragment, human)
chain: MFNKSFGTPFGGGTGGFGTTSTFGQNTGFGTTSGGAFGTSAFGSSNNTGGLFGNSQTKPGGLFGTSSFSQPATSTSTGFGFGTSTGTANTLFGTASTGTSLFSSQNNAFAQNKPTGFGNFGTSTSSGGLFGTTNTTSNPFGSTSGSLFGPSSFTAAPTGTTIKFNPPTGTDTMVKAGVSTNISTKHQCITAMKEYESKSLEELRLEDYQANRKGPQNQVGAGTTTGLFGSSPATSSATGLFSSSTTNSGFAYGQNKTAFGTSTTGFGTNPGGLFGQQNQQTTSLFSKPFGQATTTQNTGFSFGNTSTIGQPSTNTMGLFGVTQASQPGGLFGTATNTSTGTAFGTGTGLFGQTNTGFGAVGSTLFGNNKLTTFGSSTTSAPSFGTTSGGLFGNKPTLTLGTNTNTSNFGFGTNTSGNSIFGSKPAPGTLGTGLGAGFGTALGAGQASLFGNNQPKIGGPLGTGAFGAPGFNTTTATLGFGAPQAPVALTDPNASAAQQAC
notes: Nup98 FG domain, human, residues 1-499; engineered C-terminal cysteine; In particle assays a few percent of the molecules carried a fluorescent tracer label; also called HsNup98 FG; HsNup98; source: E. coli (BLR or NEB Express), purified (Ni(II) chelate, denaturing conditions); not shown: His18, N-terminal, kept
Regarding B1, the binding result with human Importin β is on record as “binds”. In [9], the “estimated critical concentration for phase separation (FG domain)” value (“estimated critical concentration” for short) is roughly 25 nM.

B2: Caenorhabditis elegans NPP-10/Nup98 FG domain (domain or fragment)
chain: MFGQNKSFGSSSFGGGSSGSGLFGQNNQNNQNKGLFGQPANNSGTTGLFGAAQNKPAGSIFGAASNTSSIFGSPQQPQNNQSSLFGGGQNNANRSIFGSTSSAAPASSSLFGNNANNTGTSSIFGSNNNAPSGGGLFGASTVSGTTVKFEPPISSDTMMRNGTTQTISTKHMCISAMSKYDGKSIEELRVEDYIANRKAPGTGTTSTGGGLFGASNTTNQAGSSGLFGSSNAQQKTSLFGGASTSSPFGGNTSTANTGSSLFGNNNANTSAASGSLFGAKPAGSSLFGSTATTGASTFGQTTGSSLFGNQQPQTNTGGSLFGNTQNQNQSGSLFGNTGTTGTGLFGQAQQQPQQQSSGFSFGGAPAATNAFGQPAAANTGGSLFGNTSTANTGSSLFGAKPATSTGFTFGATQPTTTNAFGSTNTGGGLFGNNAAKPGGLFGNTTNTGTGGGLFGSQPQASSGGLFGSNTQATQPLNTGFGNLAQPQIVMQQQC
notes: NPP-10/Nup98 FG domain, Caenorhabditis elegans, residues 1-493; engineered C-terminal cysteine; In particle assays a few percent of the molecules carried a fluorescent tracer label; also called CeNup98 FG; CeNup98; source: E. coli (BLR or NEB Express), purified (Ni(II) chelate, denaturing conditions); not shown: His18, N-terminal, kept
Regarding B2, in the data set with human Importin β, the binding result is “binds”. Besides, the “estimated critical concentration” value in data set [9] is roughly 700 nM.

B3: Saccharomyces cerevisiae Nup100 FG domain (residues 2-580, purified) (domain or fragment, S. cerevisiae)
chain: FGNNRPMFGGSNLSFGSNTSSFGGQQSQQPNSLFGNSNNNNNSTSNNAQSGFGGFTSAAGSNSNSLFGNNNTQNNGAFGQSMGATQNSPFGSLNSSNASNGNTFGGSSSMGSFGGNTNNAFNNNSNSTNSPFGFNKPNTGGTLFGSQNNNSAGTSSLFGGQSTSTTGTFGNTGSSFGTGLNGNGSNIFGAGNNSQSNTTGSLFGNQQSSAFGTNNQQGSLFGQQSQNTNNAFGNQNQLGGSSFGSKPVGSGSLFGQSNNTLGNTTNNRNGLFGQMNSSNQGSSNSGLFGQNSMNSSTQGVFGQNNNQMQINGNNNNSLFGKANTFSNSASGGLFGQNNQQQGSGLFGQNSQTSGSSGLFGQNNQKQPNTFTQSNTGIGLFGQNNNQQQQSTGLFGAKPAGTTGSLFGGNSSTQPNSLFGTTNVPTSNTQSQQGNSLFGATKLTNMPFGGNPTANQSGSGNSLFGTKPASTTGSLFGNNTASTTVPSTNGLFGNNANNSTSTTNTGLFGAKPDSQSKPALGGGLFGNSNSNSSTIGQNKPVFGGTTQNTGLFGATGTNSSAVGSTGKLFGQNNNTLNVGTC
notes: Nup100 FG domain, S. cerevisiae, residues 2-580; engineered C-terminal cysteine; In particle assays a few percent of the molecules carried a label (Atto390, Atto488 or Alexa488); also called ScNup100 FG; ScNup100; source: E. coli (BLR or NEB Express), purified (Ni(II) chelate, denaturing conditions); not shown: His18, N-terminal, kept
For B3, the binding result with human Importin β was “binds”. Further, the “estimated critical concentration” value in data set [9] is roughly 175 nM.

B4: Drosophila melanogaster Nup98 FG domain (domain or fragment)
chain: MFGGAKPSFGATPAATSFGGFSGTTTTTPFGQSAFGKPAAPAFGNTSTFAAQPAQQSLFGAAATPAQPAGGLFGANTSTGFGSTATAQPTAFGAFSQPQQTSNIFGSTQTAASTSLFGQSTLPAFGAAKPTMTAFGQTAAAQPTGSLFGQPAAATSTTGFGGFGTSAPTTTNVFGSGTASAFAQPQATAVGASGVNTGTAVAKYQPTIGTDTLMKSGQANSVNTKQHCITAMKEFEGKSLEELRLEDYMCGRKGPQAGNAPGAFGFGAQVTQPAQPASGGLFGSTAQPSTGLFGQTVTENKSMFGTTAFGQQPATNNAFGAATQQNNFLQKPFGATTTTPFAAPAADASNPFGAKPAFGQGGSLFGQAPATSAAPAFGQTNTGFGGFGTTAGATQQSTLFGATPAADPNKSAFGLGTAASAATTGFGFGAPATSTAGGGLFGNKPATSFAAPTFGATSTASTPFSNFGLNTSTAATGGGLFNSGLNKPATSGFGGFGATSAAPLNFNAGNTGGSLFGNTAKPGGGLFGGGTTTLGGTGAAPTGGLFGGGTTSFGGVGGSLGGGGFGMGTNNSLTGGIMGAC
notes: Nup98 FG domain, Drosophila melanogaster, residues 1-580; engineered C-terminal cysteine; In particle assays a few percent of the molecules carried a fluorescent tracer label; also called DmNup98 FG; DmNup98; source: E. coli (BLR or NEB Express), purified (Ni(II) chelate, denaturing conditions); not shown: His18, N-terminal, kept
In the case of B4, the binding result in the data set with human Importin β is given as “binds”. In addition, in [9], the “estimated critical concentration” value is roughly 200 nM.

B5: Arabidopsis thaliana Nup98B FG domain (domain or fragment)
chain: MFGSSNNNPFGQSSISSPFGTQTHSLFGQTNNNASNNPFATKPFGTSTPFGAQTGSSMFGGTSTGVFGAPQTSSPFGASPQAFGSSTQAFGASSTPSFGSSNSPFGGTSTFGQKSFGLSTPQSSPFGSTTQQSQPAFGNSTFGSSTPFGASTTPAFGASSTPAFGVSNTSGFGATNTPGFGATNTTGFGGSSTPGFGASSTPAFGSTNTPAFGASSTPLFGSSSSPAFGASPAPAFGSSGNAFGNNTFSSGGAFGSSSTPTFGASNTSAFGASSSPSFNFGSSPAFGQSTSAFGSSSFGSTQSSLGSTPSPFGAQGAQASTSTFGGQSTIGGQQGGSRVIPYAPTTDTASGTESKSERLQSISAMPAHKGKNMEELRWEDYQRGDKGGQRSTGQSPEGAGFGVTNSQPSIFSTSPAFSQTPVNPTNPFSQTTPTSNTNFSPSFSQPTTPSFGQPTTPSFRSTVSNTTSVFGSSSSLTTNTSQPLGSSIFGSTPAHGSTPGFSIGGFNNSQSSPLFGSNPSFAQNTTPAFSQTSPLFGQNTTPALGQSSSVFGQNTNPALVQSNTFSTPSTGFGNTFSSSSSLTTSISPFGQITPAVTPFQSAQPTQPLGAFGFNNFGQTQIANTTDIAGAMGTFSQGNFKQQPALGNSAVMQPTPVTNPFGTLPALPQC
notes: Nup98B FG domain, Arabidopsis thaliana, residues 1-668; engineered C-terminal cysteine; In particle assays a few percent of the molecules carried a fluorescent tracer label; also called AtNup98B FG; AtNup98B; source: E. coli (BLR or NEB Express), purified (Ni(II) chelate, denaturing conditions); not shown: His14 (with TEV site), N-terminal, kept
In the case of B5, in the data set with human Importin β, the binding result is recorded as “binds”. Further, the “estimated critical concentration” value in data set [9] was roughly 25 nM.

B6: Saccharomyces cerevisiae Nup116 FG domain without the GLEBS domain (domain or fragment, S. cerevisiae)
chain: FGVSRGAFPSATTQPFGSTGSTFGGQQQQQQPVANTSAFGLSQQTNTTQAPAFGNFGNQTSNSPFGMSGSTTANGTPFGQSQLTNNNASGSIFGGMGNNTALSAGSASFGTSQNGTGTTFNNPQGTTNTGFGIMGNNNSTTSATTGGLFGQKPATGMFGTGTGSGGGFGSGATNSTGLFGSSTNLSGNSAFGANKPATSGGLFGNTTNNPTNGTNNTGLFGQQNSNTNGGLFGQQQNSFGANNVSNGGAFGQVNRGAFPQQQTQQGSGGIFGQSNANANGGAFGQQQGTGALFGAKPASGGLFGQSAGSKAFGMNTNPTGTTGGLFGQTNQQQSGGGLFGQQQNSNAGGLFGQNNQSQNQSGLFGQQNSSNAFGQPQQQGGLFGSKPAGGLFGQQQGASTFASGNAQNNSIFGQNNQQQQSTGGLFGQQNNQSQSQPGGLFGQTNQNNNQPFGQNGLQQPQQNNSLFGAKPTGFGNTSLFSNSTTNQSNGISGNNLQQQSGGLFQNKQQPASGGLFGSKPSNTVGGGLFGNNQVANQNNPASTSGGLFGSKPATGSLFGGTNSTAPNASSGGIFGSNNASNTAATTNSTGLFGNKPVGAGASTSAGGLFGNNNNSSLNNSNGSTGLFGSNNTSQSTNAGGLFQNNTSTNTSGGGLFSC
notes: Nup116 FG domain, S. cerevisiae, residues 2-109 joined to 167-715 (GLEBS domain deleted); engineered C-terminal cysteine; In particle assays a few percent of the molecules carried a fluorescent tracer label; also called ScNup116_(ΔGLEBS) FG; ScNup116; source: E. coli (BLR or NEB Express), purified (Ni(II) chelate, denaturing conditions); not shown: His18, N-terminal, kept
For the molecule B6, in [9], the “estimated critical concentration” value was roughly 700 nM.
